Biological target: otc_yeast ARG3 (UniProt P05150)
Sequence (P05150 whole entry): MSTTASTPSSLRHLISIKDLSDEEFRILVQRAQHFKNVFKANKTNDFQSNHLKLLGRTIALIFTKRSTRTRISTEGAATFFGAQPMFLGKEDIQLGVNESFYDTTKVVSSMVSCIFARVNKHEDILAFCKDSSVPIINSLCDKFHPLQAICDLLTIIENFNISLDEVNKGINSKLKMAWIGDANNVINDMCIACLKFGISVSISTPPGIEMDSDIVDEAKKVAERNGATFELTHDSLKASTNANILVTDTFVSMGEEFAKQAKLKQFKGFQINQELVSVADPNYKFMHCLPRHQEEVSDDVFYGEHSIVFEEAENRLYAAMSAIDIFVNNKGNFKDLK

Arginase (Saccharomyces cerevisiae), P00812 C321R;C326T, sequence (P00812 whole entry C321R/C326T): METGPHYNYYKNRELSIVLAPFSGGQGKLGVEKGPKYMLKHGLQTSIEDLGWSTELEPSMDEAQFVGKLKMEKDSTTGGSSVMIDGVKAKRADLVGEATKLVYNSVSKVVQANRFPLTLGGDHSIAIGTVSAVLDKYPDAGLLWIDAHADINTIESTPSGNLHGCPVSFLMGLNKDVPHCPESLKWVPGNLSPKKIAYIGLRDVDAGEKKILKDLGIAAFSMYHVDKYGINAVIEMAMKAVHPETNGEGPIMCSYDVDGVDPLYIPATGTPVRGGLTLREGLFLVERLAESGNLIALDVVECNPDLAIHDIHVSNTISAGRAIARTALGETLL

effect of a mutation on the interaction: decreasing interaction
Substance: Arginase (Saccharomyces cerevisiae), P00812 C321R;C326T

Source: IntAct's records for PubMed 12679340
